Data reported in article PMC2807034, “An Autoinhibitory Tyrosine Motif in the Cell-Cycle-Regulated Nek7 Kinase Is Released through Binding of Nek9” (Molecular Cell, 2009).

Tests used:
Assay in all cases: pull-down; GST-fusion protein (20 pmol) immobilised on glutathione Sepharose 4B beads; incubated with 1 ml of 3.5 uM Nek7 protein for 2 hr; PD buffer (20 mM HEPES pH 7.5, 150 mM NaCl, 0.05% Tween 20); three 30 min washes at 4°C; anti-His6 immunoblot
Conditions in all cases: both partners purified
[1] = target: T1, Nek7, wild-type, full-length human protein with C-terminal His6 tag (human, UniProt Q8TDX7 1-302)
T1 construct: Nek7 (NIMA-related kinase 7), human, full-length (35 kDa), cloned into pET30; The His6 tag is uncleavable; also called Nek7-WT; WT; source: E. coli Codonplus RPIL, coexpressed with lambda phosphatase, purified (HisTRAP, then dialysis or gel filtration); not shown: His6, C-terminal, kept

[2] = target: T2, Nek7-Δ20, N-terminal truncation of Nek7 starting at residue 20 (human, UniProt Q8TDX7 20-302)
T2 construct: Nek7, human, truncation starting at residue 20; source: bacterially expressed and purified

[3] = target: T3, Nek7-Δ30, N-terminal truncation of Nek7 starting at residue 30 (human, UniProt Q8TDX7 30-302)
T3 construct: Nek7, human, truncation starting at residue 30; source: bacterially expressed and purified

[4] = target: T4, Nek7-N33D (human, UniProt Q8TDX7 1-302, N33D)
T4 construct: Nek7, human, point mutant of the full-length His6 construct (QuikChange); also called ND; source: bacterially expressed and purified; not shown: His6, C-terminal, kept

[5] = target: T5, Nek7-Y28A/L31A (human, UniProt Q8TDX7 1-302, Y28A | L31A)
T5 construct: Nek7, human, double point mutant of the full-length His6 construct (QuikChange); also called YA/LA; source: bacterially expressed and purified; not shown: His6, C-terminal, kept

Measured: binding result

T3 sequence (Q8TDX7 30-302, stated change not applied): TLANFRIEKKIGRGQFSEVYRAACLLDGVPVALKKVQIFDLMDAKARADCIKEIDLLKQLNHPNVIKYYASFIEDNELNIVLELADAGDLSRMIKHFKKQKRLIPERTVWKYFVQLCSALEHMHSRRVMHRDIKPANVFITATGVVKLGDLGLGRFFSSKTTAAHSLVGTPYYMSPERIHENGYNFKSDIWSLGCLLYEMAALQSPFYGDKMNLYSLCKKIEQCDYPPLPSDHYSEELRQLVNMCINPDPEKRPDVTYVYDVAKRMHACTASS
T1 sequence (Q8TDX7 whole entry): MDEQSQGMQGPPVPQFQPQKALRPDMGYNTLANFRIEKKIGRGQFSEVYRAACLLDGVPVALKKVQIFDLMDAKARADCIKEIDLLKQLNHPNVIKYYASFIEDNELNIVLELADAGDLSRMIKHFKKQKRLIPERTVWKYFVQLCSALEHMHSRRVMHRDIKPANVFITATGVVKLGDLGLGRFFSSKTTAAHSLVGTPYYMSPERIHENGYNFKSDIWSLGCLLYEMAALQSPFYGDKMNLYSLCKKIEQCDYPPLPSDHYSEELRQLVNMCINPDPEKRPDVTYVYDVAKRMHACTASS
T5 sequence (Q8TDX7 whole entry Y28A/L31A): as the sequence (Q8TDX7 whole entry) above, with Y28A, L31A counted along it
T4 sequence (Q8TDX7 whole entry N33D): as the sequence (Q8TDX7 whole entry) above, with N33D counted along it
T2 sequence (Q8TDX7 20-302, stated change not applied): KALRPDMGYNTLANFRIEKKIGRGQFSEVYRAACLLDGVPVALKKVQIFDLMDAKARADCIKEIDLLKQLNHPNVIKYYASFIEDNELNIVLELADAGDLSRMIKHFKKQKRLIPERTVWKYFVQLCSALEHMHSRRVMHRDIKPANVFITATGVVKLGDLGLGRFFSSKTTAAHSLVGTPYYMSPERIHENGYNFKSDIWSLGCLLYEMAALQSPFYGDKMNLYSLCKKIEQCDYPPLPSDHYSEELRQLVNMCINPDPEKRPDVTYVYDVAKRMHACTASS

B1: GST-tagged C-terminal domain of human Nek9 (amino acids 706-960) (domain or fragment, UniProt Q8TD19 706-960, looked up)
chain: SLHHVPDLSCRGWHTILIVEKVLNSKTIRSNSSGLSIGTVFQSSSPGGGGGGGGGEEEDSQQESETPDPSGGFRGTMEADRGMEGLISPTEAMGNSNGASSSCPGWLRKELENAEFIPMPDSPSPLSAAFSESEKDTLPYEELQGLKVASEAPLEHKPQVEASSPRLNPAVTCAGKGTPLTPPACACSSLQVEVERLQGLVLKCLAEQQKLQQENLQIFTQLQKLNKKLEGGQQVGMHSKGTQTAKEEMEMDPKP
notes: Nek9, human, noncatalytic C-terminal domain (CTD), amino acids 706-960, cloned into pGEX-4T1; pGEX-4T1 normally places GST at the N-terminus; also called Nek9-CTD; GST-Nek9-CTD; source: E. coli Rosetta DE3, purified (glutathione Sepharose)
binds: all assays above
